Results on 3 molecules are retold here after patent US20130217865A1 (VIVENTIA BIOTECHNOLOGIES, published 2013).

First the molecules themselves.
B1: Negative control peptide: Biotin-AVEDRKPSGLN (peptide)
peptide: Biotin-AVEDRKPSGLN
B2: VB1-008 monoclonal antibody (antibody, human IgG1, V domains shown)
VH: QVQLQELGPRLVRPSQTLILTCTVSGGSVSGDEYYWSWLRQTPGKGLEWIGYMSYRGSSYYSPSLQSRVTIAVDRSKNEFSLKLTSVTAADAAVYFCARKYCGGDCRSGFDIWGRGTMVTVAS
VL: YELTQPPSVSVSPGQKAFITCSGDNLGNKYVCWYQQKPGQSPVLVIYEDTKRPSGIPERFSASNSGNTATLTISGTQPIDEADYYCQAWDSRTEIFGTGTKVTVLS
notes: also called 17P2/C12
B3: Peptide 1: Biotin-STDRIPATNMD (peptide)
peptide: Biotin-STDRIPATNMD

The target in experiment [1] is B2. In words: peptide competition, flow cytometry on MDA-MB-435S cells.
The target of experiment [2] is T1, Peptide 3: Biotin-ATNMDSSHSIT (human).
T1 peptide: Biotin-ATNMDSSHSIT
In words: ELISA on peptide-coated plates, 75 µg/mL VB1-008.
Description: (§1) Peptide solutions were diluted 1-in-100 with Hank's buffered saline solution (HBSS) containing 0.5% formaldehyde. 10Q̂iL of diluted peptide solution was distributed to each well in a 96-well plate. The plates were incubated at room temperature for 1 hour. The supernatant was removed and the plates were placed uncovered in a 37° C. incubator for 16-18 hours. The peptide-coated plates were placed in plastic bags and stored at 2-8° C. until required.
(§2) The plates were washed as previously described with the wash buffer (PBS containing 0.5% Tween 20). The plates were incubated with 1:6000 dilution of anti-human IgG-HRP for one hour at room temperature. The plates were washed as previously described. 100 μL of TMB substrate (TMB peroxidase substrate KPL cat #50-76-00) was added to each well and incubated for 5-10 minutes in the dark. The reaction was terminated by adding 100 μL of 1M phosphoric acid to each well. The optical density was measured at 450 nm using an ELISA plate reader.

Experiment [3] has as its target B1. In words: ELISA on peptide-coated plates.
Description: as §1
(§3) Following overnight incubation of the peptide-coated plates, 300 μL of wash buffer (PBS containing 0.5% Tween20) was manually added to each plate, with the help of a repeator pipette equipped with an 8-channel adaptor. The contents of the plates were discarded; the plates were inverted and patted on 3-4 inches of paper towel to remove excess liquid. The above steps were repeated two more times.
as §2
The target in experiment [4] is B3. In words: ELISA on peptide-coated plates. (In general: An ELISA detects its analyte on a solid surface through an enzyme-linked reagent.)
Description: as §1, §3, §2

Where no end group is shown, it is not given here. The star is where a group is joined. Biotin = O=C1N[C@H]2[C@H](CS[C@H]2CCCCC(=O)*)N1

For the molecule B1, in experiment [1], the binding result was “no binding”. With B2, the binding result in experiment [2] is given as “binds”; in experiment [3] it was “no binding (tested: 75 µg/mL VB1-008)”; in experiment [4], “no binding (tested: 75 µg/mL VB1-008)”.

Regarding B3, in experiment [1], the binding result is “no binding”.
